# Laboratory results from PMC3516508 (PLoS ONE, 2012).
# Where a chain is given by its changes, count along the chain named. Names may count otherwise.
# B1: βA3-crystallin (natural protein, UniProt P05813 1-215, looked up)
# chain: METQAEQQELETLPTTKMAQTNPTPGSLGPWKITIYDQENFQGKRMEFTSSCPNVSERSFDNVRSLKVESGAWIGYEHTSFCGQQFILERGEYPRWDAWSGSNAYHIERLMSFRPICSANHKESKMTIFEKENFIGRQWEISDDYPSLQAMGWFNNEVGSMKIQSGAWVCYQYPGYRGYQYILECDHHGGDYKHWREWGSHAQTSQIQSIRRIQQ
# notes: βA3-crystallin; also called BA3/BA1
# B2: wild type (WT) human βB2-crystallin (natural protein, UniProt P43320 1-205, looked up)
# chain: MASDHQTQAGKPQSLNPKIIIFEQENFQGHSHELNGPCPNLKETGVEKAGSVLVQAGPWVGYEQANCKGEQFVFEKGEYPRWDSWTSSRRTDSLSSLRPIKVDSQEHKIILYENPNFTGKKMEIIDDDVPSFHAHGYQEKVSSVRVQSGTWVGYQYPGYRGLQYLLEKGDYKDSSDFGAPHPQVQSVRRIRDMQWHQRGAFHPSN
# notes: Cloned BamHI/HindIII into pET28a; Oligomeric state depends on concentration (dimer at 0.2 mg/ml, dimer and tetramer at higher concentrations); also called WT βB2-crystallin; BB2; source: E. coli Rosetta (DE3), pET28a, purified (Ni-NTA, Superdex 200)
# B3: A2V mutated βB2-crystallin (natural protein, human, UniProt P43320 1-205, looked up)
# chain: B2 chain with A2V
# notes: human βB2-crystallin with the congenital cataract-linked A2V mutation, made by site-directed mutagenesis with primers from the start codon to the stop codon; Same vector and tag as m1; also called A2V mutant; source: E. coli Rosetta (DE3), pET28a, purified (Ni-NTA, Superdex 200)
# Experiments:
# [1] = target: the molecule itself; assay: SEC; βA3-crystallin alone, run beside the mixtures of Figure 5A; concentration not given
# [2] = target: the molecule itself; assay: SEC; Superdex 200HR 10/300GL, protein at 0.2 mg/ml, buffer A (20 mM sodium phosphate, 100 mM NaCl, 1 mM DTT, 1 mM EDTA, pH 7.2), equilibrated 2 h at 4°C, run at 16°C; dimer
# [3] = target: the molecule itself; assay: SEC; Superdex 200HR 10/300GL, protein concentration raised above 0.2 up to 4 mg/ml, buffer A, equilibrated 2 h at 4°C, run at 16°C; tetramer to dimers
Protein,stoichiometry N [1],stoichiometry N [2],stoichiometry N [3]
B1,2,–,–
B2,–,2,4
B3,–,2,4
